Experimental findings from US20180284135A1 are described below.

This data set addresses T1, intact recombinant human POSTN (periostin, SEQ ID NO: 1).
T1 chain: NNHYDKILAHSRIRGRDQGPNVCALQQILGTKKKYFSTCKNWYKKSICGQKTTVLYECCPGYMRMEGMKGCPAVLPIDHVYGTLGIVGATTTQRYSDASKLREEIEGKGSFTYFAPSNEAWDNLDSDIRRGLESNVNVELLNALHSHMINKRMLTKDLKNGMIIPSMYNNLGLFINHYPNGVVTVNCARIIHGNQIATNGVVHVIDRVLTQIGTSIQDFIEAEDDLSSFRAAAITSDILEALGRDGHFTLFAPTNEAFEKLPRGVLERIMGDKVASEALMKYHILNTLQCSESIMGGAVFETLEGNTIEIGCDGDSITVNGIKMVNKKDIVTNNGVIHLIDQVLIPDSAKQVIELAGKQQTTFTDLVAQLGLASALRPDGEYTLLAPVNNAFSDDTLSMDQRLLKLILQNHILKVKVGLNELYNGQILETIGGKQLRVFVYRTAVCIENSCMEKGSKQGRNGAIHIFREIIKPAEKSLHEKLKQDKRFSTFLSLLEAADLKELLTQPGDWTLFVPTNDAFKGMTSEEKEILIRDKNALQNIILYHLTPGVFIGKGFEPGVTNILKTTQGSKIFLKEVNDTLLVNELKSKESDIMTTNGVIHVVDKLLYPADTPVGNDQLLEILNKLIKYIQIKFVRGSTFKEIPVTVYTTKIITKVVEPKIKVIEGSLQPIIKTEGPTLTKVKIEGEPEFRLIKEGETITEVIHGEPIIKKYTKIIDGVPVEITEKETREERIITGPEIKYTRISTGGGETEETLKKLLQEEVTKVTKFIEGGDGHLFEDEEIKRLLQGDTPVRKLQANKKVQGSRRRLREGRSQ

B1: human CatK of SEQ ID NO: 19 (Cathepsin K) (protein)
chain: APDSVDYRKKGYVTPVKNQGQCGSCWAFSSVGALEGQLKKKTGKLLNLSPQNLVDCVSENDGCGGGYMTNAFQYVQKNRGIDSEDAYPYVGQEESCMYNPTGKAAKCRGYREIPEGNEKALKRAVARVGPVSVAIDASLTSFQFYSKGVYYDESCNSDNLNHAVLAVGYGIQKGNKHWIIKNSWGENWGNKGYILMARNKNNACGIANLASFPKM
Regarding B1, the “CatK digestion of human recombinant POSTN (SDS-PAGE, LC-MS/MS)” value is “human POSTN is a substrate to CatK-dependent enzymatic digestion that is generating large amount of several peptides”.
